Assay results as given in patent US20240116985A1, “STAPLED PEPTIDES AND METHODS THEREOF” (priority 2020, published 2024).
Values belong to the binder of their own block, whether it stands above or below them. Starred links: 1 amine or outer side, 2 acyl side, 3 side chain; linkers in the order of their positions; H or OH if unused. Positions of bridges follow the written chain, without caps; N, C: chain ends. Non-standard residues stand in square brackets, D forms with d. Primed or numbered codes have the meaning given here. No end group written: not given here. (CH2CMe2CO2H)TriAzDap = (S)-3-(1-(2-amino-2-carboxyethyl)-1H-1,2,3-triazol-4-yl)-2,2-dimethylpropanoic acid, CC(C)(Cc1cn(C[C@H](N[*:1])C(=O)[*:2])nn1)C(=O)[*:3]; PyrS2″ = (S)-3-amino-1-((pent-4-en-1-yloxy)carbonyl)pyrrolidine-3-carboxylic acid (stapling residue), C=CCCCOC(=O)N1CC[C@@](N[*:1])(C(=O)[*:2])C1; B5(4) = 2,2-bis(4-pentenyl)glycine = 2-amino-2-(pent-4-en-1-yl)hept-6-enoic acid (stitching residue), C=CCCCC(CCCC=C)(N[*:1])C(=O)[*:2]; B5(5) = 2,2-bis(4-pentenyl)glycine, 2-amino-2-(pent-4-en-1-yl)hept-6-enoic acid (stitching residue), C=CCCCC(CCCC=C)(N[*:1])C(=O)[*:2]; PyrS2 = (S)-3-amino-1-((pent-4-en-1-yloxy)carbonyl)pyrrolidine-3-carboxylic acid, C=CCCCOC(=O)N1CC[C@@](N[*:1])(C(=O)[*:2])C1; PyrS2(5) = (S)-3-amino-1-((alkenyloxy)carbonyl)pyrrolidine-3-carboxylic acid, carbamate stapling residue; 2COOHF = (S)-2-(2-amino-2-carboxyethyl)benzoic acid, O=C([C@H](Cc1ccccc1C(=O)[*:3])N[*:1])[*:2]; B5(3) = 2,2-bis(4-pentenyl)glycine (stitching residue), C=CCCCC(CCCC=C)(N[*:1])C(=O)[*:2]; Phe(3-COOH) = N[C@@H](Cc1cccc(C(=O)O)c1)C(=O)O; 2F3MeF = Cc1cccc(C[C@H](N[*:1])C(=O)[*:2])c1F; Phe(2-CF3) = N[C@@H](Cc1ccccc1C(F)(F)F)C(=O)O; Phe(2-Cl) = N[C@@H](Cc1ccccc1Cl)C(=O)O; 1Nal = N[C@@H](Cc1cccc2ccccc12)C(=O)O; Bta = N[C@@H](Cc1csc2ccccc12)C(=O)O; Lys(iPr) = CC(C)NCCCC[C@H](N)C(=O)O; αAllylPro = C=CC[C@@]1(C(=O)O)CCCN1; tBuAla = CC(C)(C)C[C@H](N)C(=O)O; 3Thi = N[C@@H](Cc1ccsc1)C(=O)O; Cha = N[C@@H](CC1CCCCC1)C(=O)O; Thr(ol) = C[C@@H](O)[C@H](N)CO

What was measured:
[1] = target: Bcat-Halo (UniProt P35222); test: NanoBRET in HEK293 cells, Bcat-Halo / TCF4-Luc; absolute IC50
[2] = target: full-length beta-Catenin (Uniprot ID P35222) (Homo sapiens (Human)) (UniProt P35222); test: fluorescence polarization competition; 10 nM full-length beta-catenin, 10 nM 5FAM-TCF4(10-53) probe
Target sequence in this assay (P35222 2-781 limits assumed): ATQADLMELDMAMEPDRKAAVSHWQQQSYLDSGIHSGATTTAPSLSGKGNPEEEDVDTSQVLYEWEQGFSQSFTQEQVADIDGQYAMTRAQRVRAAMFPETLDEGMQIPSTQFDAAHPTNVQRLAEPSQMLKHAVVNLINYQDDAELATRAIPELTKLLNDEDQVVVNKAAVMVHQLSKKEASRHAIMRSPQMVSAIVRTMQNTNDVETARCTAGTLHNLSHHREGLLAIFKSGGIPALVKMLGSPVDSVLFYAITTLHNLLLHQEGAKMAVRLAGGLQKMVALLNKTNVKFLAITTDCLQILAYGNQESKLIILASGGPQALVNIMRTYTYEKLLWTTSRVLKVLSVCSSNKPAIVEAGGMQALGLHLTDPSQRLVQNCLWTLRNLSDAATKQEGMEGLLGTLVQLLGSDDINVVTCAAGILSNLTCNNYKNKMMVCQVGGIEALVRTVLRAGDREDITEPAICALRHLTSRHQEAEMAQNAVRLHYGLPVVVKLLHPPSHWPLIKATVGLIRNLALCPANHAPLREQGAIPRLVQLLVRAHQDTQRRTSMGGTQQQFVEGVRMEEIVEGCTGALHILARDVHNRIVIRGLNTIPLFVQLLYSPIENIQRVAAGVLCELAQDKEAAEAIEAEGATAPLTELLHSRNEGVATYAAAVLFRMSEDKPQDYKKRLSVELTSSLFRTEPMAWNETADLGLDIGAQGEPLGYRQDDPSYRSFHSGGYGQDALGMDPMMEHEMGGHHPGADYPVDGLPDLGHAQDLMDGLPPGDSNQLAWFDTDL

[3] = target: full-length beta-Catenin (Uniprot ID P35222) (Homo sapiens (Human)) (UniProt P35222); test: fluorescence polarization competition; full-length beta-catenin, 5FAM-TCF4(10-53) probe
Target sequence in this assay (P35222 whole entry, one chain of several): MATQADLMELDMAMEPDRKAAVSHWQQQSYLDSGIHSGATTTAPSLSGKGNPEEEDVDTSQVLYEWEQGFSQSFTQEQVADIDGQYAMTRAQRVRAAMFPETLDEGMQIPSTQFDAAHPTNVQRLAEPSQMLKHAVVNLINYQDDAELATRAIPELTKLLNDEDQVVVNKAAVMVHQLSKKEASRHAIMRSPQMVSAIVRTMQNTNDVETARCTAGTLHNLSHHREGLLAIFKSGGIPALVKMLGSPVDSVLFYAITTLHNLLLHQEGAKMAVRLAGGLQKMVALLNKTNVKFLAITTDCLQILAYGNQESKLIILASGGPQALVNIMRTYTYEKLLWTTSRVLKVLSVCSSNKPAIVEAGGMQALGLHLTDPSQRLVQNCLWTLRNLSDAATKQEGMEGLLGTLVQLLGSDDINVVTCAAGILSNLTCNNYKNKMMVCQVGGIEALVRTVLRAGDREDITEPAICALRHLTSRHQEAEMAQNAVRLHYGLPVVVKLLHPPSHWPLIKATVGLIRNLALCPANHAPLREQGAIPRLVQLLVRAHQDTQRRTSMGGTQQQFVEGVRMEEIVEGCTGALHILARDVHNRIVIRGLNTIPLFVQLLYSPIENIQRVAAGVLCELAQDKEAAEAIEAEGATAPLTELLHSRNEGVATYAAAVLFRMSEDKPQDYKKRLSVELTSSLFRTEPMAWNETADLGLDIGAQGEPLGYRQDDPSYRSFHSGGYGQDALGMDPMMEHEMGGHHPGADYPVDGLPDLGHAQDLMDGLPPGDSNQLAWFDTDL

[4] = target: B-cat-Halo (NanoBRET construct) (UniProt P35222); test: NanoBRET Abs IC50; Bcat-Halo/TCF4-Luc in HEK293 cells, competitor TCF4-Luc
[5] = target: B-cat-Halo (beta-catenin HaloTag NanoBRET construct expressed in HEK293 cells) (UniProt P35222); test: NanoBRET in HEK293 cells, Bcat-Halo + TCF4-Luc (competitor partner TCF4)
[6] = target: full-length beta-Catenin (Uniprot ID P35222) (Homo sapiens (Human)) (UniProt P35222); test: fluorescence polarization competition; 10 nM full-length beta-catenin with 10 nM 5FAM-TCF4(10-53) probe as competitor
Target sequence in this assay (P35222 2-781 limits assumed): as the sequence (P35222 2-781 limits assumed) above

[7] = target: full-length beta-Catenin (Uniprot ID P35222) (Homo sapiens (Human)) (UniProt P35222); test: fluorescence polarization competition: peptide titrated against 10 nM full-length beta-catenin + 10 nM 5FAM-TCF4(10-53) probe
Target sequence in this assay (P35222 2-781 limits assumed): as above

[8] = target: full-length beta-Catenin (Uniprot ID P35222) (Homo sapiens (Human)) (UniProt P35222); test: fluorescence polarization competition; full-length beta-catenin with 5FAM-TCF4(10-53) probe as competitor
Target sequence in this assay (P35222 2-781 limits assumed): as above

[9] = target: Bcat-Halo (UniProt P35222); test: NanoBRET Abs IC50, HEK293 cells; B-cat-Halo/TCF4-Luc engagement, competitor TCF4-Luc
[10] = target: full-length beta-Catenin (Uniprot ID P35222) (Homo sapiens (Human)) (UniProt P35222); test: FP competition; full-length beta-catenin, competitor 5FAM-TCF4(10-53)
Target sequence in this assay (P35222 whole entry, one chain of several): as the sequence (P35222 whole entry, one chain of several) above

[11] = target: B-cat-Halo (beta-catenin HaloTag NanoBRET construct expressed in HEK293 cells) (UniProt P35222); test: NanoBRET Abs IC50 in HEK293 cells; Bcat-Halo, TCF4-Luc as competitor
[12] = target: full-length beta-Catenin (Uniprot ID P35222) (Homo sapiens (Human)) (UniProt P35222); test: fluorescence polarization competition; full-length beta-catenin, 5FAM-TCF4(10-53) probe as competitor
Target sequence in this assay (P35222 2-781 limits assumed): as the sequence (P35222 2-781 limits assumed) above

[13] = target: full-length beta-Catenin (Uniprot ID P35222) (Homo sapiens (Human)) (UniProt P35222); test: FP competition: displacement of 5FAM-TCF4(10-53) from full-length beta-catenin
Target sequence in this assay (P35222 whole entry, one chain of several): as the sequence (P35222 whole entry, one chain of several) above

[14] = target: Bcat-Halo (UniProt P35222); test: NanoBRET Abs IC50, HEK293 cells, B-cat-Halo / TCF4-Luc engagement
[15] = target: full-length beta-Catenin (Uniprot ID P35222) (Homo sapiens (Human)) (UniProt P35222); test: fluorescence polarization competition against 5FAM-TCF4 10-53 on full-length beta-catenin
Target sequence in this assay (P35222 whole entry, one chain of several): as above

[16] = target: B-cat-Halo (beta-catenin HaloTag NanoBRET construct expressed in HEK293 cells) (UniProt P35222); test: NanoBRET in HEK293 cells, Bcat-Halo + TCF4-Luc, peptide at 10 uM
[17] = target: full-length beta-Catenin (Uniprot ID P35222) (Homo sapiens (Human)) (UniProt P35222); test: fluorescence polarization competition; peptide displaces 5FAM-TCF4(10-53) from full-length beta-catenin
Target sequence in this assay (P35222 2-781 limits assumed): as the sequence (P35222 2-781 limits assumed) above

Bcat-Halo, sequence (P35222 whole entry): as the sequence (P35222 whole entry, one chain of several) above
B-cat-Halo (NanoBRET construct), sequence (P35222 whole entry): as the sequence (P35222 whole entry, one chain of several) above
B-cat-Halo (beta-catenin HaloTag NanoBRET construct expressed in HEK293 cells), sequence (P35222 whole entry): as the sequence (P35222 whole entry, one chain of several) above

Binder: Ac-[αAllylPro]D[tBuAla][B5(5)]D[2COOHF]AAFF[PyrS2″][3Thi][Bta]S-NH2 (staple 1-4, 4-11) [I-1664]
IC50 [3]: 22 nM | IC50 [4]: 8000 nM

Binder: Ac-[αAllylPro]D[tBuAla][B5(3)]DDAAFF[PyrS2″][3Thi][Bta]Q-NH2 (staple 1-4, 4-11) [I-807]
IC50 [5]: 5300 nM | IC50 [6]: 5 nM | EC50 [7]: 5 nM

Binder: Ac-[αAllylPro]D[tBuAla][B5(5)]DDAAFT[PyrS2″][3Thi][1Nal]Q-NH2 (staple 1-4, 4-11) [I-1232]
IC50 [11]: 43300 nM | IC50 [12]: 31 nM | EC50 [13]: 31 nM

B1: I-1356 (peptide)
peptide: [αAllylPro]D[tBuAla][B5(4)]DDAAFS[PyrS2″]F[Bta]S-NH2
modifications: staple 1-4, 4-11; not fully specified; printed as PL3-Asp-Npg-B5-Asp-Asp-Ala-Ala-Phe-Ser-PyrS2-Phe-BztA-Ser-NH2
IC50 [8]: 23 nM | IC50 [9]: > 20000 nM | EC50 [10]: 23 nM

Binder: Ac-[αAllylPro]D[tBuAla][B5(5)]D[2COOHF]AAFF[PyrS2″][Phe(2-Cl)][Bta]S-NH2 (staple 1-4, 4-11) [I-1662]
IC50 [3]: 69 nM | IC50 [4]: 12000 nM

Binder: Ac-[αAllylPro]D[tBuAla][B5(4)]D[(CH2CMe2CO2H)TriAzDap]QAFL[PyrS2″][Phe(2-CF3)][Bta]A-NH2 (staple 1-4, 4-11) [I-2368]
IC50 [14]: 5000 nM | IC50 [15]: 5 nM

Results, then the binder that gave them:

IC50 [1]: > 20000 nM | IC50 [2]: 191 nM
Binder: Ac-[αAllylPro]N[Cha][B5(4)]DQ[Lys(iPr)]AFL[PyrS2]F[Bta]Q-NH2 (staple 1-4, 4-11) [I-1648]

IC50 [8]: 10 nM | IC50 [9]: 33600 nM | EC50 [10]: 10 nM
Binder: [αAllylPro]D[tBuAla][B5(4)]DDAAFS[PyrS2″]F[Bta]S-NH2 (staple 1-4, 4-11) [I-1357]

IC50 [1]: 11000 nM | IC50 [2]: 36 nM
Binder: Ac-[αAllylPro]D[tBuAla][B5(5)]D[2COOHF]AAFF[PyrS2″][Phe(2-Cl)][Bta]Q-NH2 (staple 1-4, 4-11) [I-1657]

IC50 [1]: 12700 nM | IC50 [2]: 48 nM
Binder: Ac-[αAllylPro]D[tBuAla][B5(5)]D[2COOHF]AAFF[PyrS2″][2F3MeF][Bta]Q-NH2 (staple 1-4, 4-11) [I-1655]

IC50 [3]: 30 nM | IC50 [4]: 11800 nM
Binder: Ac-[αAllylPro]D[tBuAla][B5(5)]D[2COOHF]AAFF[PyrS2(5)][3Thi][Bta][Thr(ol)] (staple 1-4, 4-11; also: staple isomer, later-eluting HPLC peak) [I-1669]

IC50 [14]: 5000 nM | IC50 [15]: 246 nM
Binder: Ac-[αAllylPro]D[tBuAla][B5(5)]D[Phe(3-COOH)]AAFL[PyrS2″][Phe(2-CF3)][Bta]QLV-NH2 (staple 1-4, 4-11) [I-2379]

IC50 [5]: 12100 nM | NanoBRET % inh @ 10 uM [16]: 35.1% | IC50 [17]: 6 nM | EC50 [7]: 6 nM
Binder: Ac-[αAllylPro]D[tBuAla][B5(5)]DDAAFN[PyrS2][Phe(2-Cl)][Bta]H-NH2 (staple 1-4, 4-11) [I-784]

IC50 [1]: 11400 nM | IC50 [2]: 108 nM
Binder: Ac-[αAllylPro]D[tBuAla][B5(5)]D[2COOHF]AAFF[PyrS2″][2F3MeF][Bta]S-NH2 (staple 1-4, 4-11) [I-1659]
